Measured values as given in patent publication US20120328625A1 (AstraZeneca / MedImmune, published 2012).

Tests used:
[1] = biological target: T1, full length human Shh expressed on the cell surface (human, UniProt Q15465 24-462); experiment: flow cytometry, transfected against parental 293T cells
T1 construct: whole, on cells; also called native human Shh; Shh-FL
Method: (§1) Finally, binding of antibody in exhaust hybridoma supernatants to native Shh was assessed using flow cytometry. […] Transfected or parental cells were seeded into the plates with V-bottom wells (50,000 cells/well). Exhaust supernatants (50 μl of a 1:10 dilution) were added to each well and incubated at 4° C. for 1 hr. […] It was added to a concentration of 2 μg/ml in a volume of 50 μl. Cells were washed and 50 μl of a 2 μg/ml solution of secondary antibody (Cy5-labeled goat-anti-human IgG or Cy5-labeled goat-anti-rabbit IgG) were added to each well. 7AAD was added to a concentration of 5 μg/ml and the mixture was incubated for 30 min at RT. The mean fluorescence for each sample was then determined using flow cytometry.

[2] = biological target: T2, biotinylated human Shh (human, UniProt Q15465 24-197, limits assumed, biotinylated); experiment: ELISA, hybridoma supernatant on neutravidin-captured biotin-Shh
T2 construct: also called biotin-Shh; immobilized biotinylated Shh
Method: After blocking with 1% milk in PBS, 40 μl of 500 ng/ml biotinylated Shh in 1×PBS, 1% milk (wt/vol) was added to each well and incubated for 1 hr at RT. Hybridoma supernatants (10 μl/well) were added to 40 μl of 1% milk, 0.05% Tween-20 in PBS per well and incubated 1 hr at RT. Following washing and incubation with secondary antibody (100 ng/ml goat-anti-human IgG Fc HRP), wells were developed with TMB substrate and subsequently quenched with 1 N HCl.

[3] = biological target: T1, full length human Shh expressed on the …; experiment: FMAT, hybridoma supernatant on 293T cells transiently expressing human Shh
Method: Cells were maintained at 1×10⁶ cells/ml overnight at 37° C., 5% CO₂. […] Supernatants were added to each well (10 μl/well) and incubated 1.5 hrs at RT. […] Plates were read on the FMAT 8100 HTS system from Applied Biosystems. Total signal (FL1×count) is defined as the number of positive cells in a well (count) multiplied by the average fluorescence intensity of the positive cells (FL1).

[4] = biological target: T1, full length human Shh expressed on the …; experiment: cell-based or functional assay
[5] = biological target: T3, Shh-N in conditioned medium (human, UniProt Q15465 24-197, N-terminal palmitoyl modification; lacks the C-terminal cholesterol moiety); experiment: cell-based or functional assay
[6] = biological target: T1, full length human Shh expressed on the …; experiment: flow cytometry, exhaust hybridoma supernatant 1:10, 293T cells transiently expressing human Shh
Method: as §1

[7] = biological target: T1, full length human Shh expressed on the …; experiment: cell-based or functional assay; remark: listed apart in the source
[8] = biological target: T3, Shh-N in conditioned medium; experiment: cell-based or functional assay; remark: listed apart in the source
[9] = biological target: T3, Shh-N in conditioned medium; experiment: cell-based or functional assay; remark: listed apart in the source

| Binder | ratio [1] | OD450 [2] [OD450] | FL1 X COUNT [3] | % Inhibition of Gli1 reporter, Co-Culture N = 1, 20 µg/ml [4] [%] | % Inhibition of Gli1 reporter, Co-Culture N = 2, 20 µg/ml [4] [%] | % Inhibition of Gli1 reporter, Co-Culture N = 3, 20 µg/ml [4] [%] | % Inhibition of Gli1 reporter, Conditioned Media N = 1, 20 µg/ml [5] [%] | % Inhibition of Gli1 reporter, Conditioned Media N = 2, 20 µg/ml [5] [%] | X Geo Mean (Transients) [6] | % Inh of Gli1 reporter, Co-Culture N = 1 [7] [%] | % Inh of Gli1 reporter, Co-Culture N = 2 [7] [%] | % Inh of Gli1 reporter, CM N = 1 [8] [%] | % Inh of Gli1 reporter, CM N = 3 [8] [%] | IC50, inhibition of osteoblast differentiation (alkaline phosphatase) of C3H10T1/2 cells [9] [nM] |
| --- | --- | --- | --- | --- | --- | --- | --- | --- | --- | --- | --- | --- | --- | --- |
| 1A5 (antibody, V domains shown, fully human XenoMouse hybridoma antibody; tested as hybridoma supernatant and as purified antibody; also called MAb 1A5) VH: EVQVVESGGDLIQPGGSLRLSCVASGFTVSSNYMNWVRQAPGKGLEWVSVIYSGGNTYYADSVKGRFTISRDNSKNTLYLQMNSLRAEDTAVYYCARDSSVVVGLGYFDLWGRGTLVTVSS VL: SYELTQPPSVSVSPGQTASITCSGDKLGANYASWYQQKPGQSPVLVIFQDTKRPSGIPERFSGSNSGNTATLTISGTQAMDEADYYCQAWDFSTVIFGGGTKLTVL | 70.5 | 6 | 304000 | 25 | 20 | 20 | 35 | 34 | 265 | 20 | 27 | 73 | 62 | 4.8 |
| 1C8 (antibody, V domains shown, fully human XenoMouse hybridoma antibody; tested as hybridoma supernatant and as purified antibody; also called MAb 1C8) VH: EVQLVESGGGLIQPGGSLRLSCAVSGFTVSSNCMNWVRQAPGKGLEWVSVIYSGGKTAYADSVKGRFTISRDNSKNTLCLQMNSLRAEDTAVYYCARDSSMVVGLGYFDLWGRGTLVTVSS VL: SYELTQPPSVSVSPGLTASITCSGDKLGYKYASWYQQKPGQSPVLVIYQDIKRPSGIPERFSGSNSGNTATLTISGTQAMDEADYYCQAWDSSTVVFGGGTKLTVL | 33.3 | – | 319000 | 26 | 10 | 23 | -1 | 8 | 118 | 32 | 24 | 47 | 43 | – |
| 1A12 (antibody, V domains shown, fully human XenoMouse hybridoma antibody; tested as hybridoma supernatant and as purified antibody; also called MAb 1A12) VH: QVYLVESGGGVVQPGRSLRLSCAASGFTFSSYGMHWVRQAPGKGLEWVAVIWYDGSNEYYADSVKGRFTISRDNSKNTLYLQMNSLRAEDTAVYYCARDLYYYGSGSPFDYWGQGTLVTVSS VL: EIVMTQSPATLSVSPGERATLSCRASQSVSSNLAWYQQKPGQAPRLLIFGVSIRATGIPARFSGSGSGTEFTLTISSLQSEDFAVYYCQQYNDWPRPGFGGGTKVEIK | 78.1 | 4.09 | 696000 | 58 | 59 | 22 | 18 | 57 | 290 | 40 | 32 | 25 | 43 | 4.6 |

Results, then the binder that gave them:

| ratio [1] | OD450 [2] [OD450] | FL1 X COUNT [3] | % Inhibition of Gli1 reporter, Co-Culture N = 1, 20 µg/ml [4] [%] | % Inhibition of Gli1 reporter, Co-Culture N = 2, 20 µg/ml [4] [%] | % Inhibition of Gli1 reporter, Co-Culture N = 3, 20 µg/ml [4] [%] | % Inhibition of Gli1 reporter, Conditioned Media N = 1, 20 µg/ml [5] [%] | % Inhibition of Gli1 reporter, Conditioned Media N = 2, 20 µg/ml [5] [%] | X Geo Mean (Transients) [6] | % Inh of Gli1 reporter, Co-Culture N = 1 [7] [%] | % Inh of Gli1 reporter, Co-Culture N = 2 [7] [%] | % Inh of Gli1 reporter, CM N = 1 [8] [%] | % Inh of Gli1 reporter, CM N = 3 [8] [%] | IC50, inhibition of osteoblast differentiation (alkaline phosphatase) of C3H10T1/2 cells [9] [nM] | Binder |
| --- | --- | --- | --- | --- | --- | --- | --- | --- | --- | --- | --- | --- | --- | --- |
| 9.1 | 3.73 | 1.11e+06 | 8 | 15 | 13 | -5 | -5 | 34.4 | 48 | 19 | 38 | 40 | – | 1H12 (antibody, V domains shown, fully human XenoMouse hybridoma antibody; tested as hybridoma supernatant and as purified antibody; also called MAb 1H12) VH: QVQLVQSGAEVKKPGASVKVSCKASGYTFTGYYMHWVRQAPGQGLEWVGWFNPNSGGTNCAQKFQGRVTMTRDTSISTAYMELSRLRSDDTAVYYCAREAVESYYYGLDVWGQGTTVTVSS VL: QSVVTQPPSASGTPGQRITISCSGSSSNIGSNYVYWYHQLPGSAPNLLIYRNNQRPSGVPDRFSGSKSGTSASLAISGLRSEDEADYFCAVWDDSLRGVVFGGGTKLTVL |
| 44.1 | 4.04 | 89600 | 32 | 25 | 36 | 34 | 48 | 165 | 38 | 42 | 52 | 42 | 5.7 | 1H8 (antibody, V domains shown, fully human XenoMouse hybridoma antibody; also called MAb 1H8) VH: QVQLQESGPGLVKPSETLSLTCTVSGGSISSYYWTWIRQPPGKGLEWIGYIYYSGSTNYNPSLKSRVTISVDTSKNQFSLKLSSVTAADTAVYYCARDRLLYGMDVWGQGTTVTVSS VL: not shown |
| 63.8 | 6 | 110000 | 31 | 18 | 28 | 2 | 16 | 219 | 31 | 47 | 21 | 9 | – | 1F4 (antibody, V domains shown, fully human XenoMouse hybridoma antibody; tested as hybridoma supernatant and as purified antibody; also called MAb 1F4) VH: not shown VL: EIVMTQSPATLSVSPGERATLSCRASQSISSNLAWYQQKPGQAPRLLIYGASTRATGIPARFSGSGSGTEFTLTISSLQSEDFAVYFCQQYHSWWTFGQGTKVEIQ |
| 40.9 | 3.46 | 370000 | 47 | 68 | 4 | 48 | 24 | 150 | 37 | 23 | 43 | 28 | 4.4 | 1H10 (antibody, V domains shown, fully human XenoMouse hybridoma antibody; tested as hybridoma supernatant and as purified antibody; also called MAb 1H10) VH: QVQLVESGGGVVQPGRSLRLSCAASGFTFSSYGMHWVRQAPGKGLEWVAVIWNDGSNEYYADSVKGRFTISRDNSKNTLYLQMNSLRAEDTAVYYCARDLYYYGSGSPFDDWGQGTLVTVSS VL: EIVMTQSPGTLSVSPGERATLSCRASQSVGSNLAWYQQKPGQAPRLLIFGVSIRATGVPARFSGSGSGTEFTLTISSLQSEDFAVYYCQQYNDWPRPGFGGGTKVEIK |
| 2.2 | 2.49 | 327000 | 35 | 43 | 28 | 23 | 44 | 8.3 | 30 | 35 | 32 | 40 | 7.1 | 1G12 (antibody, V domains shown, fully human XenoMouse hybridoma antibody; tested as hybridoma supernatant and as purified antibody; also called MAb 1G12) VH: QVQLVESGGGVVQPGRSLRLSCAASGFTFSTYGMHWVRQAPGKGLEWVAVIWYDGSNKYYADSVNGRFTISRDNSKNTLYLQMNSLRGEDTAVYYCARDLYYYGSGSPFDYWGQGTLVTVSS VL: EIVMTQSPATLSVSPGERVTLSCRASQSVSSNLAWYQQKPGQAPRLLIYGVSIRATGIPARFSGSGSGTEFTLTISSLQSEDFAVYYCQQYDNWPRPGFGGGTKVEIK |
